Data on four substances can be found in publication PMC7033585.

Test [1] concerns the target YeeF-CT^H581A, C-terminal toxic domain of YeeF (Ile527 to Gly669) with the point mutation H581A (Bacillus subtilis subsp. spizizenii str. W23) (UniProt O31506). Briefly: AUC; sedimentation velocity of each protein alone at 8, 16 and 32 μM; 20 mM HEPES pH 7.5, 150 mM NaCl; 40,000 rpm, 25°C; c(s) fit with SEDFIT.
Test [2] has as its target CdiI536 (Escherichia coli) (UniProt Q0T964). The conditions noted are these: cited from earlier work.
Test [3] has as its target YeeF-CT^H581A, point variant of the C-terminal toxic domain of YeeF (Bacillus subtilis subsp. spizizenii str. W23) (UniProt O31506). Briefly: ITC; YeeF-CT^(M) 10 μM in the cell, YezG 300 μM in the syringe; 25°C; 20 mM HEPES pH 7.5, 150 mM NaCl; two binding site model. (ITC needs no label: the signal is the heat of the interaction.)
For test [4] the target is unchanged. Briefly: AUC; sedimentation velocity of mixtures: YeeF-CT fixed, increasing YezG, incubated at 4°C for 1 h beforehand; 20 mM HEPES pH 7.5, 150 mM NaCl; 25°C.
For test [5] the target is unchanged. Nature of the test: AUC; sedimentation velocity of each protein alone at 8, 16 and 32 μM; 20 mM HEPES pH 7.5, 150 mM NaCl; 40,000 rpm, 25°C; c(s) fit with SEDFIT.

For “YeeF-CT^H581A, C-terminal toxic domain of YeeF (Ile527 to Gly669) with the point mutation H581A (from UniProt O31506 527-669) (domain or fragment)”, in test [1], the stoichiometry N (as a rule, the number of molecules, sites or subunits per partner or assembly) was 2.

Turning to CdiA-CT536 CT (from UniProt Q0T963), in test [2], the dissociation constant Kd (as a rule, the constant that tells how readily two partners part at equilibrium) is 26.4 nM.

In test [3], “YezG immunity protein (from UniProt C0H3X4 1-151) (natural protein)” registered a KD1 (first site of the two-site fit) of 29.4 nM and a KD2 (second site of the two-site fit) of 91.7 nM. Moreover, in test [4], the stoichiometry N (YezG monomers per YeeF-CT dimer) was found to be 2.

In test [5], “YeeF-CT^H581A, point variant of the C-terminal toxic domain of YeeF (from UniProt O31506 527-669) (domain or fragment)” returned a stoichiometry N of 2.
